For the experiment, the target named is human P2X4 (human) (UniProt Q99571). Briefly: cell-based or functional assay.
Chain of human P2X4 (human) (Q99571 whole entry): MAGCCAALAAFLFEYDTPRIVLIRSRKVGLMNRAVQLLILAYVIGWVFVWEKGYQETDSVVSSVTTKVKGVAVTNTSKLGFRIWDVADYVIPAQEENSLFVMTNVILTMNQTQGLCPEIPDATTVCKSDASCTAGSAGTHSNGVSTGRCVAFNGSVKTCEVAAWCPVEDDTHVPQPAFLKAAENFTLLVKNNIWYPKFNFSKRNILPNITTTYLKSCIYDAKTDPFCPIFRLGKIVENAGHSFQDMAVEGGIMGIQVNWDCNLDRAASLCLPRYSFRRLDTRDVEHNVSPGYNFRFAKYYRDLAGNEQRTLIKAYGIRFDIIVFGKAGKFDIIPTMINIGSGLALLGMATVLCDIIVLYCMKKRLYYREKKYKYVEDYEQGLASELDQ

As to isotype control IgG NIP 228 (antibody), the Fraction of control at human P2X4 (Exp 1), mean, at 7.8 µM; QPatch electrophysiology, ATP-evoked currents (fraction of control) amounted to 1.4 and the Fraction of control at human P2X4 (Exp 2), mean, at 7.8 µM; QPatch electrophysiology, ATP-evoked currents (fraction of control) is 1.36.

Source of the values: US10829540.
